From US20160367497A1, “METHODS AND COMPOSITIONS FOR TREATING NEUROPATHIES” (Washington University, priority 2007, published 2016) come the findings set out here.

Series [1] can be described thus: NMNAT enzymatic assay (NAD production). The note with it: protein from HEK293/HEK293T cells; NAD generated in 1 h. Type of series: biochemical. The protocol:
[…]
NMNAT protein overexpression, affinity purification and enzymatic assay. […] Relative NMNAT enzymatic activity was measured by using affinity purified proteins as described before and subtracted the value obtained from mock transfected cells and normalized by the amount of recombinant protein determined by densitometry.

Series [2] has as its system DRG neuronal explant cultures. Nature of the series: in vitro Wallerian degeneration assay, DRG explant neurite transection. Type of series: cell-based, mouse. The conditions noted are these: lentivirus-mediated expression in DRG neurons. As to the method: To identify the mechanism of delayed axonal degeneration mediated by the Wlds protein, we employed an in-vitro Wallerian degeneration model. Primary DRG explant neurons were infected with lentivirus expressing the appropriate proteins, and axons were injured by either removal of the neuronal cell body (transection) or growth in vincristine (toxic).
Mouse DRG explants from E12.5 embryos were cultured in the presence of 1 nM nerve growth factor. Non-neuronal cells were removed from the cultures by adding 5-fluorouracil to the culture medium. Transection of neurites was performed at 10-20 DIV using an 18-gauge needle to remove the neuronal cell bodies. Incubation with β-nicotinamide adenine dinucleotide (Sigma) or Sirtinol (Calbiochem) was performed using conditions indicated in the text or figures.
Quantitative analysis of axonal degeneration was performed as previously described (Zhai, et al., Neuron 39:217-25, 2003). Briefly, the cultures were examined using phase contrast microscopy at the indicated times. Axons with a fragmented, non-refractile appearance were designated as “degenerated.” At each time point, at least 200 singly distinguishable axons were blindly scored from several randomly taken images of each culture. Each condition was tested in triplicate explants in each experiment. Results were obtained from 2-4 independent experiments for each condition. Statistical analysis was performed by Student's T test. For calculations of neurite-covered area, digitally captured images from quadruplicate samples of two independent experiments were analyzed using analysis 3.1 software (Soft Imaging System, Lakewood, Colo.).
Cell culture, in vitro axotomy, and quantification of axonal degeneration. Mouse DRG explants from E12.5 embryos were cultured in the DMEM containing 10% FCS and 1 nM nerve growth factor. Non-neuronal cells were removed from the cultures by adding 5-fluorouracil to the culture media. Transection of neurites was performed at 14-21 DIV using an 18-gauge needle to remove the neuronal cell bodies. Lentiviral expression vectors were generated. Lentiviral infection was performed 3-7 days prior to axonal transection for 24 hr. Quantitative analysis of neurite degeneration was performed.

As to “NMNAT3: murine nicotinamide mononucleotide adenylyltransferase3”, in series [1], the “NMNAT enzymatic activity (NAD synthesis)” value was “comparable enzymatic activity compared with NMNAT1”. Further, in series [2], the “axonal/neurite degeneration after transection” value is reported as “same extent of delay in neurite degeneration as well as NMNAT1”.
